Laboratory results from article PMC7822847, “Structural insights into vesicle amine transport-1 (VAT-1) as a member of the NADPH-dependent quinone oxidoreductase family” (Scientific Reports, 2021).

What was measured:
[1] = target: the molecule itself; assay: SEC; Superdex 200 (10/30), 10 mM Tris–HCl pH 7.2, 100 mM NaCl, 0.5 mM TCEP, 8 °C; higher concentrations (loaded at 300 µM, no NADP); dimers to tetramer (dimer–dimer)
[2] = target: the molecule itself; assay: SEC; Superdex 200 (10/30), 10 mM Tris–HCl pH 7.2, 100 mM NaCl, 0.5 mM TCEP, 8 °C; low concentration (samples loaded at 10, 20, 50 µM; also with 10-fold molar NADP); monomers to dimer
[3] = target: the molecule itself; assay: crystal structure; free form of VAT-1 (43–393), 2.3 Å; crystals from 100 mM BisTris pH 6.0, 200 mM sodium nitrate, 22% PEG 3350, 20 °C

B1: human VAT-1 (full-length, 1–393 residues) (natural protein, UniProt Q99536 1-393, looked up)
chain: MSDEREVAEAATGEDASSPPPKTEAASDPQHPAASEGAAAAAASPPLLRCLVLTGFGGYDKVKLQSRPAAPPAPGPGQLTLRLRACGLNFADLMARQGLYDRLPPLPVTPGMEGAGVVIAVGEGVSDRKAGDRVMVLNRSGMWQEEVTVPSVQTFLIPEAMTFEEAAALLVNYITAYMVLFDFGNLQPGHSVLVHMAAGGVGMAAVQLCRTVENVTVFGTASASKHEALKENGVTHPIDYHTTDYVDEIKKISPKGVDIVMDPLGGSDTAKGYNLLKPMGKVVTYGMANLLTGPKRNLMALARTWWNQFSVTALQLLQANRAVCGFHLGYLDGEVELVSGVVARLLALYNQGHIKPHIDSVWPFEKVADAMKQMQEKKNVGKVLLVPGPEKEN
notes: Written as the protomer; dimer at low concentration, tetramer at 300 µM by SEC; also called vesicle amine transport protein-1; source: E. coli Rosetta 2 (DE3), purified (Glutathione Sepharose, HRV 3C cleavage, HiTrap SP, Superdex 200); not shown: GST, N-terminal, cleaved
stoichiometry N [1]: 4
stoichiometry N [2]: 2

B2: N-truncated human VAT-1 (43–393 residues) (domain or fragment, UniProt Q99536 43-393, looked up)
chain: ASPPLLRCLVLTGFGGYDKVKLQSRPAAPPAPGPGQLTLRLRACGLNFADLMARQGLYDRLPPLPVTPGMEGAGVVIAVGEGVSDRKAGDRVMVLNRSGMWQEEVTVPSVQTFLIPEAMTFEEAAALLVNYITAYMVLFDFGNLQPGHSVLVHMAAGGVGMAAVQLCRTVENVTVFGTASASKHEALKENGVTHPIDYHTTDYVDEIKKISPKGVDIVMDPLGGSDTAKGYNLLKPMGKVVTYGMANLLTGPKRNLMALARTWWNQFSVTALQLLQANRAVCGFHLGYLDGEVELVSGVVARLLALYNQGHIKPHIDSVWPFEKVADAMKQMQEKKNVGKVLLVPGPEKEN
notes: Written as the protomer; homodimer in both crystal forms, dimer to tetramer (dimer-dimer) in solution by SEC; also called vesicle amine transport protein-1; source: E. coli Rosetta 2 (DE3), purified (Glutathione Sepharose, HRV 3C cleavage, HiTrap SP, Superdex 200); not shown: GST, N-terminal, cleaved
stoichiometry N [3]: 2
